Measured values taken from patent publication US20030073142A1 (published 2003).

Biological target: human MHC-I HLA-A2.1 expressed on RMA-S-A2.1 cells (murine TAP-deficient RMA-S cells engineered to express … (human, UniProt A*02:01))
Test: cell-based or functional assay

HLA-A2.1-specific fluorescence intensity (FACS, surface HLA-A2.1 on TAP-deficient RMA-S-A2.1 cells after overnight incubation with 50 micromoles per liter peptide) [log] | Binder
1 | LLTVSGAWA [test peptide number 539.8 (human IgE CH1 nonamer, Leu Leu Thr Val Ser Gly Ala Trp Ala)]
1 | WLSDRTYTC [test peptide number 539.11 (human IgE CH2 nonamer, Trp Leu Ser Asp Arg Thr Tyr Thr Cys)]
1 | WVDNKTFSV [test peptide number 539.12 (human IgE CH1 nonamer, Trp Val Asp Asn Lys Thr Phe Ser Val)]
1 | TQSPSVFPL [test peptide number 539.10 (human IgE CH1 nonamer, Thr Gln Ser Pro Ser Val Phe Pro Leu)]
1 | QLPDARHST [test peptide number 539.9 (human IgE CH4 nonamer, Gln Leu Pro Asp Ala Arg His Ser Thr)]
